Source: patent publication US20050037420A1 (published 2005)

Target: T1, full-length NSM protein (putative movement protein of Tomato Spotted Wilt Virus) obtained from the IMPACT … (Tomato Spotted Wilt Virus, UniProt P36292 1-301)
T1 construct: mature; also called soluble NSM protein
T1 sequence (looked up): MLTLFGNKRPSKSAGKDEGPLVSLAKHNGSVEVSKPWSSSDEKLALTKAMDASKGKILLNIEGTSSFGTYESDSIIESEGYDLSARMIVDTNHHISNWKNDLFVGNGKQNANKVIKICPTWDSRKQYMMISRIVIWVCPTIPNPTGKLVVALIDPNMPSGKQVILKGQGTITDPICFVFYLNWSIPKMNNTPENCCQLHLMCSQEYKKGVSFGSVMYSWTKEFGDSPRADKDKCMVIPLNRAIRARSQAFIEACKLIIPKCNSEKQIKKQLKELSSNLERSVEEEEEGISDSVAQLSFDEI
Experiment: ELISA, full-length NSM coated, mini-scale expressed soluble scFv; vector control OD 0.02
Excerpt: NSM-specific clones were identified by ELISA using mini-scale expressed soluble scFvs and full-length NSM protein for coating.

B1: scFv N3 (scFv)
scFv: AVTLDESGGGLQTPGGGLSLVCKASGFSFSSYSMGWVRQAPGKGLEWVAGIGSSVIRTYYAPAVKGRATIPRDNGQSTVRLQLNDLRAEDTGTYYCAKESGSGKWFSIGQIDAWGHGTEVTVSSGSTSGSGKPGPGEGSTKGAPALTQPSSVSANPGGTVQITCSGGSGSYGWFQQKSPGSAPVTVIYSSDKRPSDIPSRFSGSKSGSTGTLTITGVQADDEAVYFCGSADSSHLGIFGAGTTLTVLGQP
notes: Soluble scFv, mini-scale (pHEN4II, c-myc tag) or large-scale (pTMZ1, IMAC purified) from E. coli; also called clone N3; not shown: C-terminal c-myc and his-6 tags from the expression vector
  OD410 nm: 0.2 OD

B2: scFv N10 (scFv)
scFv: AVTLDESGGGLQTPGGGLSLVCKASGFSFSSYSMGWVRQAPGKGLEWVAGIGSSVIRTYYAPAVKGRATIPRDNGQSTVRLQLNDLRAEDTGTYYCAKESGSGKWFSIGQIDAWGHGTEVTVSSGSTSGSGKPGPGEGSTKGAPALTQPSSVSANPGGTVQITCSGGSGNYGWFQQKSPGSAPVTVIYSSDKRPSDIPSRFSGSKSGSTGTLTITGVQADDEAVYFCGSADSSHLGIFGAGTTLTVLGQP
notes: Soluble scFv, mini-scale (pHEN4II, c-myc tag) or large-scale (pTMZ1, IMAC purified) from E. coli; also called clone N10; not shown: C-terminal c-myc and his-6 tags from the expression vector
  OD410 nm: 0.2 OD

B3: scFv N12 (scFv)
scFv: AVTLDESGGGLQTPGGGLSLVCKASGFDFSSYDMVWVRQAPGKGLEWVAGISSGSGPNYGAAVKGRATISRDNGQSTVRLQLNNLRAEDTATYYCAKNEGADWCGHYYCSVAYIDAWGHGTEVTVSSGSTSGSGKPGPGEGSTKGAPALTQPSSVSANPGETVKITCSGGSGDHYGWFQQKSPGSAPVTVIYNNDNRPSDIPSRFSGSKSGSTHTLTITGVQVEDEAVYFCGNRDSSAGIFGAGTTLTVLGQP
notes: Soluble scFv, mini-scale (pHEN4II, c-myc tag) or large-scale (pTMZ1, IMAC purified) from E. coli; also called clone N12; not shown: C-terminal c-myc and his-6 tags from the expression vector
  OD410 nm: 0.2 OD

B4: scFv N5 (scFv)
scFv: AVTLDESGGGLQTPGGGLSLVCKASGFDFSSYDMVWVRQAPGKGLEWVAGISSGSVPNYGAAVKGRATISRDNGQSTVRLQLNNLRAEDTATYYCAKNEGADWCGHYYCSVAYIDAWGHGTEVTVSSGSTSGSGKPGPGEGSTKGAPALTQPSSVSANPGETVKITCSGGSGDHYGWFQQKSPGSAPVTVIYKNENRPSDIPSRFSGSKSGSTHTLTITGVQVEDEAVYFCGNRDSSAGIFGAGTTLTVLGQP
notes: Soluble scFv, mini-scale (pHEN4II, c-myc tag) or large-scale (pTMZ1, IMAC purified) from E. coli; also called clone N5; not shown: C-terminal c-myc and his-6 tags from the expression vector
  OD410 nm: 0.2 OD
